{
  "source": "IntAct's records for PubMed 12732728",
  "parents": {"B1": {"name": "RNA polymerase II subunit A C-terminal domain phosphatase (Homo sapiens), Q9Y5B0 (parent)", "chain": "MEVPAAGRVPAEGAPTAAVAEVRCPGPAPLRLLEWRVAAGAAVRIGSVLAVFEAAASAQSSGASQSRVASGGCVRPARPERRLRSERAGVVRELCAQPGQVVAPGAVLVRLEGCSHPVVMKGLCAECGQDLTQLQSKNGKQQVPLSTATVSMVHSVPELMVSSEQAEQLGREDQQRLHRNRKLVLMVDLDQTLIHTTEQHCQQMSNKGIFHFQLGRGEPMLHTRLRPHCKDFLEKIAKLYELHVFTFGSRLYAHTIAGFLDPEKKLFSHRILSRDECIDPFSKTGNLRNLFPCGDSMVCIIDDREDVWKFAPNLITVKKYVYFQGTGDMNAPPGSRESQTRKKVNHSRGTEVSEPSPPVRDPEGVTQAPGVEPSNGLEKPARELNGSEAATPRDSPRPGKPDERDIWPPAQAPTSSQELAGAPEPQGSCAQGGRVAPGQRPAQGATGTDLDFDLSSDSESSSESEGTKSSSSASDGESEGKRGRQKPKAAPEGAGALAQGSSLEPGRPAAPSLPGEAEPGAHAPDKEPELGGQEEGERDGLCGLGNGCADRKEAETESQNSELSGVTAGESLDQSMEEEEEEDTDEDDHLIYLEEILVRVHTDYYAKYDRYLNKEIEEAPDIRKIVPELKSKVLADVAIIFSGLHPTNFPIEKTREHYHATALGAKILTRLVLSPDAPDRATHLIAARAGTEKVLQAQECGHLHVVNPDWLWSCLERWDKVEEQLFPLRDDHTKAQRENSPAAFPDREGVPPTALFHPMPVLPKAQPGPEVRIYDSNTGKLIRTGARGPPAPSSSLPIRQEPSSFRAVPPPQPQMFGEELPDAQDGEQPGPSRRKRQPSMSETMPLYTLCKEDLESMDKEVDDILGEGSDDSDSEKRRPEEQEEEPQPRKPGTRRERTLGAPASSERSAAGGRGPRGHKRKLNEEDAASESSRESSNEDEGSSSEADEMAKALEAELNDLM"}},
  "data": [
    {"variants_of": "B1", "conditions": "with t2fa_human GTF2F1, P35269", "values": [
      {"variant": "E956A;L957A", "effect of a mutation on the interaction": "decreasing interaction"}
    ]}
  ]
}
